Results taken from patent US20260258149A1.

Molecular target: BSA-STn
Assay: SPR, BSA-STn-serine immobilised on the chip as ligand, antibody injected as analyte

B1: humanized anti-STn antibody clone V3 (antibody, V domains shown)
VH: QVQLQESGPGLVKPSQTLSLTCSVIGYSITSGYYWNWIRQPPGKGLEWIGSINYDGSNIYNPSLKDRVTISRDTSKNQFSLKLSSVTAADTAVYYCARGGDYWGQGTTVTVSS
VL: EIVLTQSPATLSLSPGERATLSCSASSSVSYMHWFQQKPGQAPRRWIYDTSKRATGVPARFSGSGSGTDYTLTISSLEPEDFAAYYCQQWSSDPPMLTFGGGTKLEIK
Kd: 33.2 nM
koff: 0.00568 s⁻¹
kon: 171000 M⁻¹ s⁻¹

B2: humanized anti-STn antibody clone V1 (antibody, V domains shown)
VH: QVQLQESGPGLVKPSQTLSLTCTVIGYSITSGYYWNWIRQPPGKGLEWIGSINYDGSNIYNPSLKSRVTISRDTSKNQFSLKLSSVTAADTAVYYCARGGDYWGQGTTVTVSS
VL: EIVLTQSPATLSLSPGERATLSCSASSSVSYMHWFQQKPGQAPRRWIYDTSKRATGVPARFSGSGSGTDYTLTISSLEPEDFAAYYCQQWSSDPPMLTFGGGTKLEIK
Kd: 31.7 nM
koff: 0.00553 s⁻¹
kon: 174000 M⁻¹ s⁻¹

B3: humanized anti-STn antibody clone V2 (antibody, V domains shown)
VH: QVQLQESGPGLVKPSQTLSLTCSVIGYSITSGYYWNWIRQPPGKGLEWIGSINYDGSNIYNPSLKDRVTISRDTSKNQFSLKLSSVTAADTAVYYCARGGDYWGQGTTVTVSS
VL: DIVLTQSPAILSLSPGERATLSCSASSSVSYMHWFQQKSGQAPKRWIYDTSKLASGVPARFSGSGSGTDYTLTISSLEAEDFAAYYCQQWSSDPPMLTFGGGTKLEIK
Kd: 39.4 nM
koff: 0.00519 s⁻¹
kon: 132000 M⁻¹ s⁻¹
